Experimental data taken from patent US20250250357A1 (NANJING ZAIMING PHARMACEUTICAL, published 2025).
Like-named read-outs stand apart in the source and are kept apart here.

T1: monkey MSLN full-length protein (NCBI: XP_028696439.1) expressed on HEK293T-monkey MSLN cells (monkey)
T1 construct: Whole encoded precursor
T1 chain: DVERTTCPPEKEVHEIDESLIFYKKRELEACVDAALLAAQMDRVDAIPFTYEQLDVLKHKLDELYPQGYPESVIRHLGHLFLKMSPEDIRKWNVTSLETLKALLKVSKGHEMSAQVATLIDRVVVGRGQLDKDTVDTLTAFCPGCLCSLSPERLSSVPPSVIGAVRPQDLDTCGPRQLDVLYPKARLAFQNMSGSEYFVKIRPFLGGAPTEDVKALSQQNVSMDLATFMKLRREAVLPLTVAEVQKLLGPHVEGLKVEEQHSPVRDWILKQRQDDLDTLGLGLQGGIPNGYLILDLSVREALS


Tests used:
[1] = target: T2, human MSLN-FL-his protein (human, UniProt Q13421 296-580); experiment: competitive ELISA; row Tab142; further: test concentration or dose not given here
T2 construct: made in HEK293E cells, purified on nickel column; also called hMSLN-FL-his; human MSLN full-length protein; not shown: His tag

[2] = target: T2, human MSLN-FL-his protein; experiment: competitive ELISA; row F8-24.14; further: test concentration or dose not given here
[3] = target: T2, human MSLN-FL-his protein; experiment: competitive ELISA; row F8-9.16; further: test concentration or dose not given here
[4] = target: T2, human MSLN-FL-his protein; experiment: competitive ELISA; row F8-22.23; further: test concentration or dose not given here
[5] = target: T2, human MSLN-FL-his protein; experiment: competitive ELISA; row F8-32.3; further: test concentration or dose not given here
[6] = target: T3, human MSLN protein endogenously expressed on OVCAR3 tumor cells (human, UniProt Q13421 296-598); experiment: FACS on OVCAR3 cells
T3 construct: whole, on cells; endogenous expression on a tumor cell line; also called human mesothelin
T3 sequence (Q13421 other isoform, or with tags, fused parts or gaps): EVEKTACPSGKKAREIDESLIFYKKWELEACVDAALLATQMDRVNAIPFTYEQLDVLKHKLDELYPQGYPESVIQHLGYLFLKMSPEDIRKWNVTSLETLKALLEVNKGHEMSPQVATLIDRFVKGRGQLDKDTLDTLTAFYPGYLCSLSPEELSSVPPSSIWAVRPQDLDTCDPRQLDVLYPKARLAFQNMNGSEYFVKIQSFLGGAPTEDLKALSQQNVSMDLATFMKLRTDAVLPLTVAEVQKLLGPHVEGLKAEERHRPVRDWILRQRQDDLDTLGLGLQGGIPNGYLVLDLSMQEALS

[7] = target: T2, human MSLN-FL-his protein; experiment: SPR (Biacore), antibody captured on Protein A chip;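 further: flow cell at 25 °C, antigen injected for 240 s at five concentrations from 200 nM downward, dissociation followed up to 600 s, double-referenced, fitted with Langmuir 1:1 model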
[8] = target: T2, human MSLN-FL-his protein; experiment: competitive ELISA; row F8-28.23; further: test concentration or dose not given here
[9] = target: T2, human MSLN-FL-his protein; experiment: competitive ELISA; row Tab021; further: test concentration or dose not given here
[10] = target: T2, human MSLN-FL-his protein; experiment: competitive ELISA; row F8-29.1; further: test concentration or dose not given here
[11] = target: T2, human MSLN-FL-his protein; experiment: competitive ELISA; row F8-33.12; further: test concentration or dose not given here
[12] = target: T4, human MSLN-R3 protein expressed on HEK293T cells (HEK293T-hMSLN-R3) (human, UniProt Q13421 487-606); experiment: FACS on HEK293T-hMSLN-R3 cells;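 further: chimeric antibodies incubated with cells on ice for 2 h, binding read by flow cytometry as mean fluorescence intensity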
T4 construct: C-terminal limit uncertain
Method: (§1) The desired cells were expanded to the logarithmic growth phase in a T-75 cell culture flask. […] After the cells from the previous step were subjected to cell counting, the cell pellet was resuspended to 2×10⁶ cells/mL in a blocking buffer of [PBS+2% (w/w) BSA] and added into a 96-well FACS reaction plate at 50 μL/well. A chimeric antibody (a sample to be tested) was added at 50 μL/well, and the plate was incubated on ice for 2 h. […] After the plate was centrifuged and washed 5 times with a PBST buffer, assay and analysis were performed by FACS (FACS CantoII, purchased from BD). Data analysis was performed by software (Flowjo) to obtain the mean fluorescence intensity (MFI) of the cells.

[13] = target: T2, human MSLN-FL-his protein; experiment: competitive ELISA; row F8-36.12; further: test concentration or dose not given here
[14] = target: T2, human MSLN-FL-his protein; experiment: competitive ELISA; row F8-8.22; further: test concentration or dose not given here
[15] = target: T5, human MSLN protein endogenously expressed on OVCAR3 tumor cells (human, UniProt Q13421 296-598); experiment: FACS on OVCAR3 cells
T5 construct: whole, on cells; Endogenous target on OVCAR3 cells; kept apart from the recombinant full-length construct; also called mesothelin
Method: as §1

[16] = target: T6, human MSLN full-length protein (NCBI: AAH09272.1) expressed on HEK293T-hMSLN-B8 cells (human, UniProt Q13421 296-598); experiment: FACS on HEK293T-hMSLN-B8 cells
T6 construct: Whole encoded precursor
Method: as §1

[17] = target: T7, human MSLN-R3 protein (Met487-Ser606 of NCBI AAH09272.1) expressed on HEK293T-hMSLN-R3 cells (human, UniProt Q13421 487-606); experiment: FACS on HEK293T-hMSLN-R3 cells
T7 construct: also called Region3
Method: as §1

[18] = target: T1, monkey MSLN full-length protein (NCBI: …); experiment: FACS on HEK293T-monkey MSLN cells
Method: as §1

T7 sequence (Q13421 495-614): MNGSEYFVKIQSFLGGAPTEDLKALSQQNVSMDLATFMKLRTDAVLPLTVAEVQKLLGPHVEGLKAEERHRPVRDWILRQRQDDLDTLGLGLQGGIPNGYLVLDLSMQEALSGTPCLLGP
T4 sequence (Q13421 495-614): as above
T2 sequence (Q13421 other isoform, or with tags, fused parts or gaps): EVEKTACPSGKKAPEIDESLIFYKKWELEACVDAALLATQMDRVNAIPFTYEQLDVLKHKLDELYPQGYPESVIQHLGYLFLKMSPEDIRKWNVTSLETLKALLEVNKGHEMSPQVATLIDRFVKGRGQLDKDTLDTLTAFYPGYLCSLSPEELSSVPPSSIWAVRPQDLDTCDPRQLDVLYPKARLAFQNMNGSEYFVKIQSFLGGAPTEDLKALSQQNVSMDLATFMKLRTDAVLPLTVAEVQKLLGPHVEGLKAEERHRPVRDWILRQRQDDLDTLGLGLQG
T6 sequence (Q13421 other isoform, or with tags, fused parts or gaps limits assumed): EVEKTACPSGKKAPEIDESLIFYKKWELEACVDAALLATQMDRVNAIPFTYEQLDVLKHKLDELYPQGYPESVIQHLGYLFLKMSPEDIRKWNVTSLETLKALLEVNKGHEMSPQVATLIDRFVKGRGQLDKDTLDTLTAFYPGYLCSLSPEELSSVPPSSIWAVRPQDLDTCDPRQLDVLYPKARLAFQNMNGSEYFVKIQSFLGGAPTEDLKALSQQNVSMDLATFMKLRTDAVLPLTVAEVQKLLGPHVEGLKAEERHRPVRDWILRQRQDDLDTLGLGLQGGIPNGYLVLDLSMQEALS

Binder | competition rate [1] | competition rate [2] | competition rate [3] | competition rate [4] | competition rate [5] | EC50 [6] | Maximum mean fluorescence intensity [6] | Kd [7] | koff [7] | kon [7] | competition rate [8] | competition rate [9] | competition rate [10] | competition rate [11] | EC50 [15] | Maximum mean fluorescence intensity [15] | EC50 [16] | Maximum mean fluorescence intensity [16] | Maximum mean fluorescence intensity [17] | Maximum mean fluorescence intensity [18] | other results
S009-F5-9.16 (antibody, human IgG1, kappa, V domains shown, human-murine chimeric antibody, human IgG1/kappa constant regions) VH: EVQLRQSGPVLVKPGASVKMSCKASGYTFTDYFMNWVKPSHGKSLEWIGVINPSNGVINYNQRFKGKATLTVDKSSSTAYMELNSLTSEDSAVYYCARSYDFAWFAYWGQGTLVTVSA VL: DVLMTQTPLSLPVSLGDQASISCRSSQNIVHSNGNTYLEWYLQKPGQSPKLLIYTVSNRFSGVPDRFSGSGSGTDFTLKISRVEAEDLGVYYCFQGSHVPYTFGGGTKLEIKR | – | – | – | – | – | – | – | – | – | – | – | – | – | – | 0.82 nM | 3510 | 0.76 nM | 240000 | 63900 | 365 | EC50 [17]: 0.35 nM; binding result [18]: no binding
S009-F4-94.15 (antibody, human IgG1, kappa, V domains shown, human-murine chimeric antibody, human IgG1/kappa constant regions) VH: QVQLHQPGAELVRPGSSVKLSCKASGYTFTSYWVHWVQQRPRQGLEWIGNIDPSDSEIHYNQKFKDKATLTVDKSSSTAYIHLSRLTSEDSAIYYCVRGGVPWFAYWGQGTLVTVSA VL: QIVLTQSPAIMSASPGEKVTLTCSASSSVSSTYLYWFQQKPGSSPKVWIYSTSNLASGVPARFSGSGSGTSYSLTISSMEAEDAASYFCHQWISYPYTFGGGTKLEIKR | – | – | – | – | – | – | – | – | – | – | – | – | – | – | 0.65 nM | 7060 | 3.06 nM | 113000 | 84 | 29900 | binding result [17]: no binding; EC50 [18]: 0.37 nM
S009-F4-127.10 (antibody, human IgG1, kappa, V domains shown, human-murine chimeric antibody, human IgG1/kappa constant regions) VH: EVQLQQSGPVLVKPGASVKMSCKASGYTFTDYYMNWVKQSHGKSPEWIGVINPYNDVISYNQKFKGKATLTVDKSSSTAYMELNSLTSEDSAVYYCANYGSSYYAMDYWGQGTSVTVSS VL: DVVMTQTPLSLSVSLGDQASISCRSSQSLVHSNGNTYLQWSLQKPGQSPNLLIYKVSNRFSGVPDRFSGSGSGTDFTLKISRVEAEDLGVYFCSQTTHVPFTFGGGTKLEIRR | – | – | – | – | – | – | – | – | – | – | – | – | – | – | – | 3360 | 6.07 nM | 102000 | 14200 | 41100 | EC50 [17]: 1.97 nM; EC50 [18]: 3.42 nM

Further lines, with some results ahead:

competition rate [1] | competition rate [2] | competition rate [3] | competition rate [4] | competition rate [5] | EC50 [6] | Maximum mean fluorescence intensity [6] | Kd [7] | koff [7] | kon [7] | competition rate [8] | competition rate [9] | competition rate [10] | competition rate [11] | EC50 [15] | Maximum mean fluorescence intensity [15] | EC50 [16] | Maximum mean fluorescence intensity [16] | Maximum mean fluorescence intensity [17] | Maximum mean fluorescence intensity [18] | Binder | other results
9.8% | 33.6% | -39.8% | 38.6% | 22.9% | 59.8 nM | 1290 | 44 nM | 0.00843 s⁻¹ | 192000 M⁻¹ s⁻¹ | 73.4% | 7.7% | 18.8% | 10% | – | – | – | – | – | – | S009-F8-28.23 (antibody, human IgG1, kappa, V domains shown, human-murine chimeric antibody, human IgG1/kappa constant regions) VH: EVQLVESGGDLVKPGGSLKLSCAASGFTFSSYAMSWVRQTPEKRLEWVATISDGGSYTYYPDNVEGRFTISRDNAKNNLYLQMSHLKSEDTAMYYCAGDRGYSYALDYWGQGTSVTVSS VL: NIMMTQSPSSLAVSAGEKVTMSCKSSQSVLYSSNQKNYLAWYQQKPGQSPKLLIYWASTRESGVPDRFTGSGSGTDFTLTISSVQAEDLAVYYCHQYLSSLTFGAGTKLELKR | Maximum mean fluorescence intensity [12]: 51; binding result [12]: no binding; competition rate [13]: -79.5%; competition rate [14]: 24.9%
47.9% | 95.5% | -89.6% | 96.6% | 84.9% | 28.4 nM | 2410 | 5.77 nM | 0.0361 s⁻¹ | 6.27e+06 M⁻¹ s⁻¹ | 102% | 9.4% | 70.6% | 62.8% | – | – | – | – | – | – | S009-F8-33.12 (antibody, human IgG1, kappa, V domains shown, human-murine chimeric antibody, human IgG1/kappa constant regions) VH: EVQLQQSGAELVKPGASVKLSCTASAFNIKDYYMHWVKQRTEQGLEWIGRIDPEDGETKYAPKFQGKATITADTSSNTAYLQLSSLTSEDTAVYYCASGSGTGAMDYWGQGTSVTVSS VL: DIVMTQSQKFMSTSVGDRVSITCKASQNVRTAVGWYQQKPGQSPKALIYLASNRHTGVPDRFTGSGSGTDFTLTISNVQSEDLADYFCLQHWNSPYTFGGGTKLVIKR | Maximum mean fluorescence intensity [12]: 64; binding result [12]: no binding; competition rate [13]: -134%; competition rate [14]: 96%
– | – | – | – | – | – | – | – | – | – | – | – | – | – | 0.31 nM | 2600 | 0.41 nM | 202000 | 186 | 202 | S009-F6-62.5 (antibody, human IgG1, kappa, V domains shown, human-murine chimeric antibody, human IgG1/kappa constant regions) VH: QVQLQQPGTELVKPGASVKLSCRASGYTFTAYWMHWVKQRPGQGLEWIGNINPSNGGTDFNEKFKSKATLTVDKSSSTAYMQLSSLTSEDSAVYYCARGRGYFDVWGTGTTVTVSS VL: DILLTQSPAILSVSPGERVSFSCRASKNIGTSIHWYQQRTNGSPRLLIKYASESISGIPSRFSGSGSGTDFTLNINSVESEDIADYYCQQSNSWPTLTFGAGTKLELKR | binding result [17]: no binding; binding result [18]: no binding
– | – | – | – | – | – | – | – | – | – | – | – | – | – | 4.13 nM | 6810 | 1.39 nM | 231000 | 135 | 131 | S009-F6-76.1 (antibody, human IgG1, kappa, V domains shown, human-murine chimeric antibody, human IgG1/kappa constant regions) VH: QVQLQQSGPELVKPGASVKISCKASGYTFTDYYINWVKQRPGQGLEWIGWIFPGRGSTFYYEKFKGKATLTVDKSSSTAYMLLSSLTSEDSAVYFCARRGDSAGYEDLDYWGQGTSVTVSS VL: NIVMTQSPKFMSMSVGERVTLSCKASENVVTYVSWYQQKPKQSPKLLIYGASKRYTGVPDRFTGSGSATDFTLTISSVQAEDLGDYHCGQSYSYPYTFGGGTKLEIKR | binding result [17]: no binding; binding result [18]: no binding
46.4% | 92.4% | -158% | 95.7% | 85.4% | 12.8 nM | 5500 | 6.35 nM | 0.00275 s⁻¹ | 433000 M⁻¹ s⁻¹ | 100% | 11.4% | 70% | 60.3% | – | – | – | – | – | – | S009-F8-22.23 (antibody, human IgG1, kappa, V domains shown, human-murine chimeric antibody, human IgG1/kappa constant regions) VH: QVQLKQSGPGLVQPSQSLSITCTVSGFSLFSYGVHWVRQSPGKGLEWLGVIWSGGSTDYNAAFISRLSISKDNSKSQVFFKMNSLQADDTAMYYCARNGGSMITTLYYAMDYWGQGTSVTVSS VL: DVVMTQTPLSLPVSLGDQASISCRSSQSLVHSYGNTYLHWYLQKPGQSPKLLIYKVSNRFSGVPDRFSGSGSGTDFTLKISRVEAEDLGVYFCSQSTHIPFTFGGGTKLEIKR | Maximum mean fluorescence intensity [12]: 404; competition rate [13]: -156%; competition rate [14]: 94%
